This note sets out measurements from article PMC5695019, “Expression, Purification, and Characterization of (R)-Sulfolactate Dehydrogenase (ComC) from the Rumen Methanogen Methanobrevibacter millerae SM9” (Archaea, 2017).

Substrate in series [1]: O=C(O)C(=O)CS(=O)(=O)O
In words: purified protein. It is filed as biochemical, Methanobrevibacter millerae. Conditions: reduction reaction, 400 μM NADH, 400 mM KCl, 50 mM BTP pH 6.5, 37°C.

Substrate in series [2]: NC(=O)C1=CN([C@@H]2O[C@H](COP(=O)(O)OP(=O)(O)OC[C@H]3O[C@@H](n4cnc5c(N)ncnc54)[C@H](O)[C@@H]3O)[C@@H](O)[C@H]2O)C=CC1
In words: purified protein. It is filed as biochemical, Methanobrevibacter millerae. Conditions: reduction reaction, 500 μM sulfopyruvate, 400 mM KCl, 50 mM BTP pH 6.5, 37°C, varied: cofactor.

B1: ComC ((R)-sulfolactate dehydrogenase) (Methanobrevibacter millerae) (protein)
chain: MKIMKDNEIALVKEILKKLGASEEDCELVAEATIDADLKGFTSHGLGRFPQYLISIEAGTINLEDNITIEKETPAIALINGNSGFGQAVSYKAMQIAIKKAKEVGIGCVGVHNTNHFGVTGFYSDLALRENVIGMVIANTDPAIAPLGGKEALIGTNPIAIGIPSETYITVDMATSVTARGKIIESRRKGLDLPEGWALDKDGNPTTDPEAALDGGSILPFGGFKGYALALMVEILTGPLVQAGYGTGVTGTASPTKDCTKGDLYIAIDPSKFGDFGDFVANTEDFVSQVRATGETVAIPGDLEVKRIAEAEENGIEIDAKLYEQLKGICDDLDIDIDSYLED
notes: full-length, His-tagged (pET151D TOPO, E. coli Rosetta 2), tag kept, 376 residues and 40104 Da with tag; dimer (75 kDa by gel filtration); primers encode N-terminus MKIMKDNE and C-terminus DIDSYLED
For orientation: Km means the concentration of substrate that gives half-maximal velocity. A word on the Vmax: it is the top rate of the reaction or transport when substrate is in excess. A word on the kcat: it is the number of substrate molecules converted per active site and unit of time at saturation. For B1, in the series “purified protein [1]”, the Km was 196 ± 71 µM, the Vmax is 93.9 µmol/min/mg and the kcat worked out at 62.8 ± 9.7 s⁻¹. In “purified protein [2]”, the Km worked out at 55.1 ± 7.6 µM, the Vmax was determined as 73.1 µmol/min/mg and the kcat came to 48.9 ± 2.2 s⁻¹.
